Some targets named below: CC-R4-Tri3; CC-Tri3-K4; CC-Tri3-R4.
Test in all cases: AUC; sedimentation velocity (60 krpm) and sedimentation equilibrium (six rotor speeds, 30-48 krpm, single ideal species model); 325 uM peptide in PI buffer (10 mM potassium phosphate pH 7.4), 1.625 mM TCEP, 25 mM NaCl, 20 °C
Experiment [1] has as its target CC-Tri3 variant with a negatively charged E4 block at the C terminus.
Experiment [2] addresses CC-Tri3 variant with a negatively charged E4 block at the N terminus.
The target of experiment [3] is CC-Tri3 with tetra-lysine (K4) appended to the N terminus.

For the substance CC-R4-Tri3 (peptide), the stoichiometry N with CC-R4-Tri3 turned out to be 3.
“CC-Tri3 variant with a negatively charged E4 block at the C terminus (peptide)” came in with a stoichiometry N in experiment [1] of 3.
In turn, “CC-Tri3 variant with a negatively charged E4 block at the N terminus (peptide)” yielded a stoichiometry N in experiment [2] of 3.
With “CC-Tri3 with tetra-lysine (K4) appended to the N terminus (peptide)”, the stoichiometry N in experiment [3] is 3.
For CC-Tri3-K4 (peptide), in the experiment with CC-Tri3-K4, the stoichiometry N worked out at 3.
CC-Tri3-R4 (peptide) displayed a stoichiometry N in the experiment with CC-Tri3-R4 of 3.

As usually defined, the stoichiometry N is the number of molecules, sites or subunits per partner or assembly.

The record behind these values is publication PMC5967840.
